4 molecules from article doi:10.1101/2022.12.21.520923 (bioRxiv, 2022) can be followed below.

T1: full-length GST-p115 (UniProt O60763 1-962)
T1 sequence: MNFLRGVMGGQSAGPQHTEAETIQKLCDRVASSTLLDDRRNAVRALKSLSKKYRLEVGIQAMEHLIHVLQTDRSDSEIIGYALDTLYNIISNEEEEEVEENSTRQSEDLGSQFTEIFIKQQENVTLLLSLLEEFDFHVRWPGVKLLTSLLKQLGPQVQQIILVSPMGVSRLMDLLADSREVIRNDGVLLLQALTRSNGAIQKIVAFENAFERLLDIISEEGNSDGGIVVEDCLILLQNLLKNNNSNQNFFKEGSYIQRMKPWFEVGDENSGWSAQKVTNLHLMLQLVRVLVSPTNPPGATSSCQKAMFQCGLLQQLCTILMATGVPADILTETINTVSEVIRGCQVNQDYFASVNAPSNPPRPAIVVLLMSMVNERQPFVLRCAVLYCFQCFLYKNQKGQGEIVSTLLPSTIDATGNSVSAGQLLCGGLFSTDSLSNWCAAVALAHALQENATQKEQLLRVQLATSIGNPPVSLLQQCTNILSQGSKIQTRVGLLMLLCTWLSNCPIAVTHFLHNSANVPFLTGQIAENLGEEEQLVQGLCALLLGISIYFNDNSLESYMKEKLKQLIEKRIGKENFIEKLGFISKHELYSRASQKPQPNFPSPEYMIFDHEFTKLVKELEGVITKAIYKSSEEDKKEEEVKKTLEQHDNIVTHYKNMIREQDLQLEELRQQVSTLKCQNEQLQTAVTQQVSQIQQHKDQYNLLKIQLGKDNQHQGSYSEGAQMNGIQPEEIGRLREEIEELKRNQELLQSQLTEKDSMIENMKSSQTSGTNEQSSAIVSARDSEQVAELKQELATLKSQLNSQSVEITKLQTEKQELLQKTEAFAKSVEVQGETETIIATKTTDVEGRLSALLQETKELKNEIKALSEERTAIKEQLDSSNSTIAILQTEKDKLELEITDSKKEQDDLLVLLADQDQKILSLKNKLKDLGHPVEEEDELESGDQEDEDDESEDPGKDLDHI

T2: full-length GST-SNX5 phosphomimetic S226E mutant (human, UniProt Q9Y5X3 1-404, S226E)
T2 sequence: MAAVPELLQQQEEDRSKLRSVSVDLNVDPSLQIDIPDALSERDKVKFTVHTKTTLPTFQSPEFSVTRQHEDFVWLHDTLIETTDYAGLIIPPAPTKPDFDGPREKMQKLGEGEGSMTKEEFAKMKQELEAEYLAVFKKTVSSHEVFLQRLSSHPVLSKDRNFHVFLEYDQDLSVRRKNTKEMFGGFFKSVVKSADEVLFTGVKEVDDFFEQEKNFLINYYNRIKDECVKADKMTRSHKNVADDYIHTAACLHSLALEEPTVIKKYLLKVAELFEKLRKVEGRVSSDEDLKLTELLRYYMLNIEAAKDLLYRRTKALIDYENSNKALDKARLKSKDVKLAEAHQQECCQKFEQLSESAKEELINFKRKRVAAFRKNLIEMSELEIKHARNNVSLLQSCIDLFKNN

T3: full-length His-p115 (UniProt O60763 1-962)
T3 sequence: T1 sequence

T4: His-tagged CHC22 Hub (human, UniProt P53675 1074-1640)
T4 sequence: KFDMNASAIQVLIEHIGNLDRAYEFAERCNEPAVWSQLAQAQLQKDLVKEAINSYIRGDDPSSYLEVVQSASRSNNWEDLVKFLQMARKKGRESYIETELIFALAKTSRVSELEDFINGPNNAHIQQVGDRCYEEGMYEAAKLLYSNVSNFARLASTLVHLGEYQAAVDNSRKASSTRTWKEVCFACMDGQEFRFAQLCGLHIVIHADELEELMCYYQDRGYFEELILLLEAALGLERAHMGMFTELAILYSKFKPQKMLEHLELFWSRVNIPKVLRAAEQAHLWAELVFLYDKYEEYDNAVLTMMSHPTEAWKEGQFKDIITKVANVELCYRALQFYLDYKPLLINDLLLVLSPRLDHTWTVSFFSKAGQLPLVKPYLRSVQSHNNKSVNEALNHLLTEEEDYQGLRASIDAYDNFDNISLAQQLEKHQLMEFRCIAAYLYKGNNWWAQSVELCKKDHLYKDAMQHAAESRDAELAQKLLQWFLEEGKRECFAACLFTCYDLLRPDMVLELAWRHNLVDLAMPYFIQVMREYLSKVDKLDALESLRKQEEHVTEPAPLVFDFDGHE

T5: His-SUMO CHC17 terminal domain (human, UniProt Q00610 1-364)
T5 sequence: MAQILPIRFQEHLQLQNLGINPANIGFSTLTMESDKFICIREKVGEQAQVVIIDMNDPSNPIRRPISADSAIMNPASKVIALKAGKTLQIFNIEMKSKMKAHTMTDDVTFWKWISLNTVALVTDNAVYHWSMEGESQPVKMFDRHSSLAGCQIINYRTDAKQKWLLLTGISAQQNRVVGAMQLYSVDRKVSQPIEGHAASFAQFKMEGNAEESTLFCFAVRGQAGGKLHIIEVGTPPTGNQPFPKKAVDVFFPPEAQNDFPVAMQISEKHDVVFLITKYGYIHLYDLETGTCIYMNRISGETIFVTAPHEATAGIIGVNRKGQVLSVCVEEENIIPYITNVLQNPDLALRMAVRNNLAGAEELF

B1: His-SUMO-tagged CHC22 terminal domain (domain or fragment)
chain: MAQILPVRFQEHFQLQNLGINPANIGFSTLTMESDKFICIREKVGEQAQVTIIDMSDPMAPIRRPISAESAIMNPASKVIALKAGKTLQIFNIEMKSKMKAHTMAEEVIFWKWVSVNTVALVTETAVYHWSMEGDSQPMKMFDRHTSLVGCQVIHYRTDEYQKWLLLVGISAQQNRVVGAMQLYSVDRKVSQPIEGHAAAFAEFKMEGNAKPATLFCFAVRNPTGGKLHIIEVGQPAAGNQPFVKKAVDVFFPPEAQNDFPVAMQIGAKHGVIYLITKYGYLHLYDLESGVCICMNRISADTIFVTAPHKPTSGIIGVNKKGQVLSVCVEEDNIVNYATNVLQNPDLGLRLAVRSNLAGAEKLF
B2: His-tagged CHC22 TxD (domain or fragment)
chain: WAQSVELCKKDHLYKDAMQHAAESRDAELAQKLLQWFLEEGKRECFAACLFTCYDLLRPDMVLELAWRHNLVDLAMPYFIQVMREYLSKVDKLDALESLRKQEEHVTEPAPLVFDFDGHE
B3: full-length GST-SNX5 (natural protein)
chain: T2 sequence with E226S
B4: GST-GGA2-HE (domain or fragment)
chain: GRVTFGNRVTSSLGDIPVSRVFQNPAGCMKTCPLIDLEVDNGPAQMGTVVPSLLHQDLAALGISDAPVTGMVSGQNCCEEKRNPSSSTLPGGGVQNPSADRNLLDLLSAQPAPCPLNYVSQKSVPKEVPPGTKSSPGWSWEAGPLAPSPSSQNTPLAQVFVPLESVKPSSLPPLIVYDRNGFRILLHFSQTGAPGHPEVQVLLLTMMSTAPQPVWDIMFQVAVPKSMRVKLQPASSSKLPAFSPLMPPAVISQMLLLDNPHKEPIRLRYKLTFNQGGQPFSEVGEVKDFPDLAVLGAA

What all share (experiment): pull-down
The target of one test is T1, full-length GST-p115.
The target in the test “full-length GST-SNX5” is B3.
For test [1], the target named is T2, full-length GST-SNX5 phosphomimetic ….
Test [2] addresses full-length His-tagged SNX1 (UniProt Q13596 1-522).
Another test deals with T3, full-length His-p115.
The next test has as its target T4, His-tagged CHC22 Hub.
Test [3] concerns the target B1.
The target of test [4] is T5, His-SUMO CHC17 terminal domain.

Numbering of substitutions follows the chain as printed.

Chain of full-length His-tagged SNX1 (Q13596 whole entry): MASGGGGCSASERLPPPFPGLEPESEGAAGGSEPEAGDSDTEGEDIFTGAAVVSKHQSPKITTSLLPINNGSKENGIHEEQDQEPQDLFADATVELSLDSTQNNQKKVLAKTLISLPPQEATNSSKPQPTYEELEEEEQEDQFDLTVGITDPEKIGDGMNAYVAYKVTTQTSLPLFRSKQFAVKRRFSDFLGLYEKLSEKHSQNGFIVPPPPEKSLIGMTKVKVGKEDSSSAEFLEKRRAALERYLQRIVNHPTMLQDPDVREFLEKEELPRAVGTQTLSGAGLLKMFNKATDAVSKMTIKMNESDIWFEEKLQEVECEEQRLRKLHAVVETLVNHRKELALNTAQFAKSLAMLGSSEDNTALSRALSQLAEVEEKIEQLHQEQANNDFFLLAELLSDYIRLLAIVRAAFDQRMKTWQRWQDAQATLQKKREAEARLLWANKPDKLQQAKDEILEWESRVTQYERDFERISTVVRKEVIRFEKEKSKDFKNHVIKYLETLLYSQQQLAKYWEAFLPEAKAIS

Take B1: the binding result in the test with full-length GST-p115 was “binds”.
In the case of B2, the binding result (with full-length GST-SNX5; in test [1]) was “binds” each time.
For the molecule B3, the binding result (in test [2]; in the test with full-length His-p115; with His-tagged CHC22 Hub) was “binds” throughout.
B4: the binding result in test [3] and in test [4] was “binds” each time.
